From patent publication US20220267415A1

B1: anti-SARS-CoV2-14 IgG (lambda-VL-kappa-CL hybrid light chain) (antibody, V domains shown)
VH: EVQLQQSGPGLVKPSQTLSLTCAISGDSVSSNSAAWNWIRQSPSRGLEWLGRTYYRSKWYNDYAVSVKSRITINPDTSKNQFSLQLNSVTPEDTAVYYCAREEQQLVHDYYYYGMDVWGQGTMVTVSS
VL: QAVVTQPASVSGSPGQSITISCTGTSSDIGAYNYISWYQQHPGKAPKLIIYEVSNRPSGISYRFSGSKSGNTASLTISGLQAEDEANYYCSSYAGSISFGGGTKVTVL
B2: anti-SARS-CoV2-14 IgG (full lambda light chain) (antibody, V domains shown)
VH: B1 VH
VL: B1 VL

How the values were obtained:
Settings in all cases: remark: other sources report otherwise
[1] = molecular target: recombinant SARS-CoV-2 Receptor Binding Domain (RBD) with a his tag (ATUM, Cat. 65639.1.a) (SARS-CoV-2), P0DTC2; test: ELISA on coated RBD-his
[2] = molecular target: T1, recombinant Spike protein (Sino Biologicals Cat #40589-V08B1) (SARS-CoV-2), P0DTC2; test: ELISA on coated recombinant spike
[3] = molecular target: T1, recombinant Spike protein (Sino …); test: BLI (Octet), His-tagged S on Ni-NTA sensor, avidity
[4] = molecular target: T2, wild type RBD protein (generated as in Ku et al. 2021) (SARS-CoV-2), P0DTC2; test: binding KD on RBD protein, generally as Example 4
[5] = molecular target: T2, wild type RBD protein (generated as in …); test: BLI competition, RBD on sensor, antibody then ACE2; competitor ACE2

Binder | EC50 [1] [nM] | EC50 [2] [nM] | Kd [3] [nM] | koff [3] [s⁻¹] | kon [3] [M⁻¹ s⁻¹] | Kd [4] [nM] | EC50 [5] [nM]
B1 | > 60 | 6.22 | 1.39 | 0.0013 | 933000 | – | –
B2 | – | – | – | – | – | 0.82 | 18.6
